Test results as given in paper PMC4010901 (The Journal of Experimental Medicine, 2014).
Where two headings read alike, the source gives them in different places. Blank lines part the entries; values can stand above or below the binder they belong to.

Key:
[1] = biological target: T1, recombinant mRGMb-HIS (R&D Systems) (mouse, UniProt Q7TQ33 49-415); assay: ELISA
T1 sequence (looked up): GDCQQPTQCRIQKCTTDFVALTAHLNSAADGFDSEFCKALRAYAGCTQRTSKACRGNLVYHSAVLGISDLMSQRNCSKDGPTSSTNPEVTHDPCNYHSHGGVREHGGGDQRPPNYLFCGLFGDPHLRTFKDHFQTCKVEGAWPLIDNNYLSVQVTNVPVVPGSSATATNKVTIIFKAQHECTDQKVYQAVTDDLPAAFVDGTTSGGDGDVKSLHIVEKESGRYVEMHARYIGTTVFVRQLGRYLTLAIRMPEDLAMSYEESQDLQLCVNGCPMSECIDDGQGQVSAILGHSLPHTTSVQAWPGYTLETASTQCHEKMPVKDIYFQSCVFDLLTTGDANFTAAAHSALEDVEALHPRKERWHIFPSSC

[2] = biological target: T1, recombinant mRGMb-HIS (R&D Systems); assay: ELISA; remark: listed apart in the source
[3] = biological target: T1, recombinant mRGMb-HIS (R&D Systems); assay: ELISA; remark: listed apart in the source
[4] = biological target: T2, recombinant hRGMb-HIS (R&D Systems) (human, UniProt Q6NW40 46-413); assay: ELISA
T2 sequence (looked up): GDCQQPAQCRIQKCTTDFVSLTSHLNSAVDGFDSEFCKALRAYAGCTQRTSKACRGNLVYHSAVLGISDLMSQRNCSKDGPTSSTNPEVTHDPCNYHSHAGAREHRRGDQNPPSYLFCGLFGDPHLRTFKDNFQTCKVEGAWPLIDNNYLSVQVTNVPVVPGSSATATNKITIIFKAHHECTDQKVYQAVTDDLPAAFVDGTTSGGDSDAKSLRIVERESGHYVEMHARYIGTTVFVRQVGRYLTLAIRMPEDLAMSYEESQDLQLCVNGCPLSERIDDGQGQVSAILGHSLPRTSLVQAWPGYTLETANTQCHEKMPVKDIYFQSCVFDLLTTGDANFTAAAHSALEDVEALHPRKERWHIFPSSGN

[5] = biological target: T2, recombinant hRGMb-HIS (R&D Systems); assay: ELISA; remark: listed apart in the source
[6] = biological target: T3, RGMb (R&D Systems) immobilised for Biacore ( (mouse and human RGMb-HIS …, UniProt Q7TQ33 49-415)); assay: SPR
T3 sequence (looked up): T1 sequence (looked up)

B1: recombinant mouse BMP-4 (R&D Systems) (ligand, UniProt P21275 293-408, looked up)
chain: SPKHHPQRSRKKNKNCRRHSLYVDFSDVGWNDWIVAPPGYQAFYCHGDCPFPLADHLNSTNHAIVQTLVNSVNSSIPKACCVPTELSAISMLYLDEYDKVVLKNYQEMVVEGCGCR
binding result [1]: binds

B4: mPD-L2-hIgG1/IgA fusion protein (Fc fusion, mouse, UniProt Q9WUL5 20-221, looked up)
chain: LFTVTAPKEVYTVDVGSSVSLECDFDRRECTELEGIRASLQKVENDTSLQSERATLLEEQLPLGKALFHIPSVQVRDSGQYRCLVICGAAWDYKYLTVKVKASYMRIDTRILEVPGTGEVQLTCQARGYPLAEVSWQNVSVPANTSHIRTPEGLYQVTSVLRLKPQPSRNFSCMFWNAHMKELTSAIIDPLSRMEPKVPRTW
binding result [5]: binds

B5: mPD-L2-hIgG (R&D Systems) (Fc fusion, mouse, UniProt Q9WUL5 20-221, looked up)
chain: B4 chain
Kd [6]: 48.5 nM

The remaining lines, values ahead:

binding result [2]: binds
B2: recombinant mouse BMP-2 (Invitrogen) (ligand, UniProt P21274 281-394, looked up)
chain: QAKHKQRKRLKSSCKRHPLYVDFSDVGWNDWIVAPPGYHAFYCHGECPFPLADHLNSTNHAIVQTLVNSVNSKIPKACCVPTELSAISMLYLDENEKVVLKNYQDMVVEGCGCR

binding result [3]: binds | binding result [4]: binds
B3: hPD-L2-mIgG2a fusion protein (Fc fusion, human, UniProt Q9BQ51 20-220, looked up)
chain: LFTVTVPKELYIIEHGSNVTLECNFDTGSHVNLGAITASLQKVENDTSPHRERATLLEEQLPLGKASFHIPQVQVRDEGQYQCIIIYGVAWDYKYLTLKVKASYRKINTHILKVPETDEVELTCQATGYPLAEVSWPNVSVPANTSHSRTPEGLYQVTSVLRLKPPPGRNFSCVFWNTHVRELTLASIDLQSQMEPRTHPT
